This note sets out measurements from the supplement of paper PMC9112550, “Optimization of the antimicrobial peptide Bac7 by deep mutational scanning” (BMC Biology, 2022).
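Further: peptides expressed intracellularly from a pBAD plasmid library in pooled LB shake-flask culture, induced with 0.3% L-arabinose, DNA abundance read by NGS, three biological replicates, DESeq2 with apeglm shrinkage.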

This data set deals with Escherichia coli TOP10. In words: shrunken log2 fold change of peptide-encoding DNA abundance (4.5 h post-induction vs induction); higher = less antimicrobial activity (less host growth inhibition). Particulars: time post-induction: 4.5 h; library: site-saturation at positions 5, 18, 19, 20.
For the sequence RRIRMRPPRLPRPRPRPMNGPRP, the “shrunken log2 fold change” value turned out to be 0.0715.
The result for RRIRCRPPRLPRPRPRPQQMPRP reads 0.013; that for RRIRWRPPRLPRPRPRPRPMPRP, 0.427.
With RRIRVRPPRLPRPRPRPKNAPRP, the “shrunken log2 fold change” value is -0.197.
Consider RRIRKRPPRLPRPRPRPLTHPRP, for which the “shrunken log2 fold change” value turned out to be 0.0737.
Consider RRIRTRPPRLPRPRPRPENYPRP, for which the “shrunken log2 fold change” value was -0.00973.
To RRIRRRPPRLPRPRPRPPYMPRP belongs 0.315.
Take RRIRARPPRLPRPRPRPDGYPRP: the “shrunken log2 fold change” value is 0.647.
Turning to RRIRQRPPRLPRPRPRPYRHPRP, the “shrunken log2 fold change” value is -0.268.
RRIRTRPPRLPRPRPRPNTPPRP: the “shrunken log2 fold change” value was -0.17.
In the case of RRIRGRPPRLPRPRPRPMPLPRP, the “shrunken log2 fold change” value was 0.606.
For RRIRERPPRLPRPRPRPMNPPRP, the “shrunken log2 fold change” value was -0.488.
To RRIRQRPPRLPRPRPRPESIPRP belongs 0.0598; to RRIRPRPPRLPRPRPRPADNPRP, -0.428.
Take RRIRQRPPRLPRPRPRPQQQPRP: the “shrunken log2 fold change” value is -0.0448.
In the case of RRIRWRPPRLPRPRPRPEWTPRP, the “shrunken log2 fold change” value is 0.0673.
For RRIRTRPPRLPRPRPRPMNFPRP, the “shrunken log2 fold change” value is -0.638.
For RRIRERPPRLPRPRPRPDIAPRP, the “shrunken log2 fold change” value was -0.0321.
The result for RRIRFRPPRLPRPRPRPYKQPRP reads -0.83; that for RRIRLRPPRLPRPRPRPKVNPRP, 0.0232; that for RRIRARPPRLPRPRPRPDLCPRP, 0.393.
As to RRIRQRPPRLPRPRPRPSMIPRP, the “shrunken log2 fold change” value was -0.603.
For the sequence RRIRNRPPRLPRPRPRPTEGPRP, the “shrunken log2 fold change” value was found to be 0.0116.
On to RRIRDRPPRLPRPRPRPYDTPRP, for which the “shrunken log2 fold change” value is -0.0872.
As to RRIRIRPPRLPRPRPRPSCEPRP, the “shrunken log2 fold change” value was -0.17.
On to RRIRLRPPRLPRPRPRPLGDPRP, for which the “shrunken log2 fold change” value was determined as 0.015.
Consider RRIRLRPPRLPRPRPRPPHFPRP, for which the “shrunken log2 fold change” value came to 0.437.
Take RRIRQRPPRLPRPRPRPNQTPRP: the “shrunken log2 fold change” value is -0.0346.
As to RRIRMRPPRLPRPRPRPWWSPRP, the “shrunken log2 fold change” value turned out to be 0.334.
In the case of RRIRKRPPRLPRPRPRPMRKPRP, the “shrunken log2 fold change” value came out at 1.44.
Consider RRIRCRPPRLPRPRPRPRHDPRP, for which the “shrunken log2 fold change” value is -0.234.
To RRIRARPPRLPRPRPRPGPRPRP belongs 1.22.
On to RRIRSRPPRLPRPRPRPCAIPRP, for which the “shrunken log2 fold change” value is -0.475.
The result for RRIRIRPPRLPRPRPRPSSCPRP reads -0.17; that for RRIRHRPPRLPRPRPRPHMYPRP, -0.0666.
The result for RRIRDRPPRLPRPRPRPEENPRP reads 1.11; that for RRIRARPPRLPRPRPRPFYNPRP, -0.44.
Regarding RRIRKRPPRLPRPRPRPREVPRP, the “shrunken log2 fold change” value was 0.538.
With RRIRLRPPRLPRPRPRPFGHPRP, the “shrunken log2 fold change” value was -0.177.
To RRIRGRPPRLPRPRPRPMVIPRP belongs 0.329.
The result for RRIRNRPPRLPRPRPRPTVHPRP reads -0.514.
To RRIRSRPPRLPRPRPRPSAVPRP belongs 0.091; to RRIRTRPPRLPRPRPRPQAEPRP, -0.00758.
With RRIRSRPPRLPRPRPRPMYGPRP, the “shrunken log2 fold change” value is -0.844.
As to RRIRTRPPRLPRPRPRPSPRPRP, the “shrunken log2 fold change” value was determined as 0.396.
For RRIRFRPPRLPRPRPRPFELPRP, the “shrunken log2 fold change” value is -0.0457.
Take RRIRARPPRLPRPRPRPYLDPRP: the “shrunken log2 fold change” value is 0.118.
For the sequence RRIRERPPRLPRPRPRPHAVPRP, the “shrunken log2 fold change” value was -0.34.
Regarding RRIRWRPPRLPRPRPRPDTIPRP, the “shrunken log2 fold change” value was -0.019.
The result for RRIRCRPPRLPRPRPRPWNDPRP reads 0.00383; that for RRIRSRPPRLPRPRPRPATWPRP, -0.136.
Regarding RRIRLRPPRLPRPRPRPFFMPRP, the “shrunken log2 fold change” value is -0.369.
Regarding RRIRSRPPRLPRPRPRPDCEPRP, the “shrunken log2 fold change” value was determined as 0.259.
The result for RRIRGRPPRLPRPRPRPSWVPRP reads 0.0128; that for RRIRRRPPRLPRPRPRPWRNPRP, 0.0985; that for RRIRTRPPRLPRPRPRPDWPPRP, 0.135.
For the sequence RRIRIRPPRLPRPRPRPHMFPRP, the “shrunken log2 fold change” value is -1.
RRIRKRPPRLPRPRPRPTYKPRP: the “shrunken log2 fold change” value is -0.198.
For the sequence RRIRTRPPRLPRPRPRPCAGPRP, the “shrunken log2 fold change” value was -0.0463.
RRIRARPPRLPRPRPRPGNHPRP: the “shrunken log2 fold change” value is -0.0331.
To RRIRPRPPRLPRPRPRPWNRPRP belongs 0.122; to RRIRKRPPRLPRPRPRPQVFPRP, 0.00956.
The result for RRIRYRPPRLPRPRPRPMRKPRP reads -0.00197.
For the sequence RRIRNRPPRLPRPRPRPAFNPRP, the “shrunken log2 fold change” value came out at 0.179.
For the sequence RRIRPRPPRLPRPRPRPQNKPRP, the “shrunken log2 fold change” value is -0.479.
The result for RRIRCRPPRLPRPRPRPMGRPRP reads 0.162.
As to RRIRRRPPRLPRPRPRPYIDPRP, the “shrunken log2 fold change” value is -0.339.
For the sequence RRIRTRPPRLPRPRPRPYMRPRP, the “shrunken log2 fold change” value was -0.48.
RRIRGRPPRLPRPRPRPMWGPRP: the “shrunken log2 fold change” value is -0.0435.
To RRIRNRPPRLPRPRPRPFKGPRP belongs -0.0902.
To RRIRPRPPRLPRPRPRPILTPRP belongs -0.211.
With RRIRHRPPRLPRPRPRPNGNPRP, the “shrunken log2 fold change” value is -0.617.
RRIRTRPPRLPRPRPRPRKHPRP: the “shrunken log2 fold change” value was -0.166.
The result for RRIRWRPPRLPRPRPRPAGVPRP reads 0.66; that for RRIRARPPRLPRPRPRPELCPRP, 0.92; that for RRIRYRPPRLPRPRPRPDICPRP, -0.0244.
Take RRIRARPPRLPRPRPRPHNHPRP: the “shrunken log2 fold change” value was -0.436.
RRIRQRPPRLPRPRPRPDRCPRP: the “shrunken log2 fold change” value amounted to 0.298.
The result for RRIRDRPPRLPRPRPRPNDNPRP reads -0.563; that for RRIRARPPRLPRPRPRPAKAPRP, 0.332.
As for RRIRHRPPRLPRPRPRPGDQPRP, the “shrunken log2 fold change” value was -0.0414.
As to RRIRERPPRLPRPRPRPHHGPRP, the “shrunken log2 fold change” value is -0.43.
The result for RRIRIRPPRLPRPRPRPRRWPRP reads 0.592.
To RRIRWRPPRLPRPRPRPCHQPRP belongs -0.0867; to RRIRQRPPRLPRPRPRPDPVPRP, 0.0565.
Take RRIRKRPPRLPRPRPRPRMQPRP: the “shrunken log2 fold change” value turned out to be 0.622.
In the case of RRIRPRPPRLPRPRPRPQWRPRP, the “shrunken log2 fold change” value was 0.308.
On to RRIRSRPPRLPRPRPRPPQAPRP, for which the “shrunken log2 fold change” value came out at 0.768.
In the case of RRIRFRPPRLPRPRPRPSHSPRP, the “shrunken log2 fold change” value was -0.171.
RRIRKRPPRLPRPRPRPHTEPRP: the “shrunken log2 fold change” value came out at 0.0507.
The result for RRIRYRPPRLPRPRPRPVVSPRP reads -0.595.
With RRIRPRPPRLPRPRPRPRPQPRP, the “shrunken log2 fold change” value worked out at 0.634.
For the sequence RRIRNRPPRLPRPRPRPGMLPRP, the “shrunken log2 fold change” value is -0.184.
As to RRIRKRPPRLPRPRPRPKGTPRP, the “shrunken log2 fold change” value amounted to 0.00171.
Consider RRIRIRPPRLPRPRPRPMAIPRP, for which the “shrunken log2 fold change” value was -0.274.
With RRIRMRPPRLPRPRPRPYVHPRP, the “shrunken log2 fold change” value is -0.0522.
To RRIRVRPPRLPRPRPRPTSFPRP belongs -0.0728; to RRIRDRPPRLPRPRPRPQKRPRP, -0.00561; to RRIRFRPPRLPRPRPRPHDIPRP, -0.0788.
As for RRIRYRPPRLPRPRPRPKHDPRP, the “shrunken log2 fold change” value was -0.648.
In the case of RRIRVRPPRLPRPRPRPKEVPRP, the “shrunken log2 fold change” value was 0.177.
To RRIRTRPPRLPRPRPRPFKAPRP belongs 0.0168; to RRIRDRPPRLPRPRPRPVSTPRP, 0.0725.
RRIRNRPPRLPRPRPRPKETPRP: the “shrunken log2 fold change” value is -0.0238.
On to RRIRARPPRLPRPRPRPQKFPRP, for which the “shrunken log2 fold change” value was -0.509.
For the sequence RRIRLRPPRLPRPRPRPRRCPRP, the “shrunken log2 fold change” value amounted to 0.356.
On to RRIRLRPPRLPRPRPRPIGMPRP, for which the “shrunken log2 fold change” value worked out at 0.0212.
The result for RRIRLRPPRLPRPRPRPHACPRP reads 0.0658; that for RRIRWRPPRLPRPRPRPGETPRP, 0.174; that for RRIRERPPRLPRPRPRPDFFPRP, -0.279.
The result for RRIRNRPPRLPRPRPRPARAPRP reads 0.44.
Take RRIRYRPPRLPRPRPRPGITPRP: the “shrunken log2 fold change” value was -0.444.
As for RRIRCRPPRLPRPRPRPVMCPRP, the “shrunken log2 fold change” value is -0.127.
Take RRIRQRPPRLPRPRPRPGYFPRP: the “shrunken log2 fold change” value worked out at 0.0104.
To RRIRSRPPRLPRPRPRPTQLPRP belongs 0.249.
In the case of RRIRCRPPRLPRPRPRPAMTPRP, the “shrunken log2 fold change” value was -0.0039.
Turning to RRIRARPPRLPRPRPRPQPDPRP, the “shrunken log2 fold change” value was determined as 0.254.
Regarding RRIRSRPPRLPRPRPRPYWAPRP, the “shrunken log2 fold change” value is -0.177.
RRIRSRPPRLPRPRPRPADKPRP: the “shrunken log2 fold change” value is -0.254.
RRIRSRPPRLPRPRPRPCSPPRP: the “shrunken log2 fold change” value was determined as 0.149.
RRIRMRPPRLPRPRPRPNNNPRP: the “shrunken log2 fold change” value was -0.134.
In the case of RRIRTRPPRLPRPRPRPKCPPRP, the “shrunken log2 fold change” value worked out at 0.281.
As to RRIRQRPPRLPRPRPRPYYWPRP, the “shrunken log2 fold change” value was 0.0316.
The result for RRIRFRPPRLPRPRPRPFRYPRP reads -0.151; that for RRIRFRPPRLPRPRPRPHPRPRP, 0.5.
